The target in the test is T1, refolded processed β-secretase (BACE) (human, UniProt P56817 43-454, limits assumed).
T1 construct: The processed preparation is an equimolar mixture of two species, LRLPRE; It is C-terminally truncated and lacks the transmembrane domain; It is not glycosylated; also called mamapsin 2
As to the kind of experiment: X-ray structure coordinates of the complex.

Results on 1 molecule are retold here after US7166454 (dated 2007).

Where no end group is shown, it is not given here.

T1 sequence (P56817 43-454 limits assumed): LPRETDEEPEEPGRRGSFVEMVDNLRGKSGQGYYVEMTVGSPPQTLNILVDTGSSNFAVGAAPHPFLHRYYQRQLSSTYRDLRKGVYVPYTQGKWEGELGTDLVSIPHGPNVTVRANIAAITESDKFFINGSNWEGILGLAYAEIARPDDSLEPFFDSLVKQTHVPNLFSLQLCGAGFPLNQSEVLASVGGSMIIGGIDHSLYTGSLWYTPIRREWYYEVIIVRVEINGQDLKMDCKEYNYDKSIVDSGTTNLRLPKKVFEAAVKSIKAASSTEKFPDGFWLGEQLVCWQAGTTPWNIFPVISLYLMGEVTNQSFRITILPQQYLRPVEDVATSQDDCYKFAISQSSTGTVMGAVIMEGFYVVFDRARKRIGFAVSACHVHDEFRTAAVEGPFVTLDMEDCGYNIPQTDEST

B1: OM-99-2 (peptide)
peptide: EVNLAAEF
modifications: also: L4-A5 as hydroxyethylene isostere (2R,4S,5S)-5-amino-4-hydroxy-2,7-dimethyl-octanoyl
notes: also called Bachem catalog # H-5108
Regarding B1, the binding result is recorded as “binds”.
